For the assay, the target named is FOXA1-ΔHx (UniProt P35582). As to the kind of experiment: pull-down.

On to “H3/H4 tetramers (from UniProt P84233;P62799) (complex)”, for which the pull-down relative to wild-type FOXA1 (fraction of wild type) was found to be 0.33.

The values are drawn from publication PMC7901023.
